Experimental data from patent US20260216242A1 (ALMAC DISCOVERY, published 2026).
Positions count from the first letter of the chain named.

Experiments:
[1] = target: T1, Human ALPL (leucine zipper) (human); assay: BLI, antigen immobilised
T1 construct: Whole entry: fused with a cysteine stabilised leucine zipper and His tag; also called hALPL
T1 chain: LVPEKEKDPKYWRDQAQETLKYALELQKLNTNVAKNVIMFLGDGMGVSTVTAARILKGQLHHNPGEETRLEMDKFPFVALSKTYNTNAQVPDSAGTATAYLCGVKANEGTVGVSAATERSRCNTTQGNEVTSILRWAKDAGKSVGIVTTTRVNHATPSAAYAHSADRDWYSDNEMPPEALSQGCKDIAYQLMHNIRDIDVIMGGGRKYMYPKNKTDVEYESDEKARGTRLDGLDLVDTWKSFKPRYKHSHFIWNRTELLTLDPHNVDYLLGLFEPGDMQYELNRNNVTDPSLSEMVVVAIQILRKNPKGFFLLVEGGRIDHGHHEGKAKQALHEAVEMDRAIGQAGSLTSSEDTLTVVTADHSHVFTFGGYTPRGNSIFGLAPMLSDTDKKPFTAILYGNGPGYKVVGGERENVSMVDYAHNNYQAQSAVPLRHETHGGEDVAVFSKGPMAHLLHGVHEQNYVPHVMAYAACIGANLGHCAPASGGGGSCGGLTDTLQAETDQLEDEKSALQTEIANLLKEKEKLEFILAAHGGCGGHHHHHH
Experimental: (§1) Binding kinetics were determined using the Biolayer Interferometry (BLI) Octet K2 system (Sartorius). […] All assays were conducted in PBS with a plate temperature of 25° C. Ka (M⁻¹s⁻¹), Kd (s⁻¹) and KD (nM) values were determined using Octet Data Analysis High Throughput software (ForteBio) for Biolayer Interferometry.

[2] = target: T2, Human ALPP (leucine zipper) (human); assay: BLI, antigen immobilised
T2 construct: Whole entry: ALPP fused with a cysteine stabilised leucine zipper and His tag; also called hALPP
T2 chain: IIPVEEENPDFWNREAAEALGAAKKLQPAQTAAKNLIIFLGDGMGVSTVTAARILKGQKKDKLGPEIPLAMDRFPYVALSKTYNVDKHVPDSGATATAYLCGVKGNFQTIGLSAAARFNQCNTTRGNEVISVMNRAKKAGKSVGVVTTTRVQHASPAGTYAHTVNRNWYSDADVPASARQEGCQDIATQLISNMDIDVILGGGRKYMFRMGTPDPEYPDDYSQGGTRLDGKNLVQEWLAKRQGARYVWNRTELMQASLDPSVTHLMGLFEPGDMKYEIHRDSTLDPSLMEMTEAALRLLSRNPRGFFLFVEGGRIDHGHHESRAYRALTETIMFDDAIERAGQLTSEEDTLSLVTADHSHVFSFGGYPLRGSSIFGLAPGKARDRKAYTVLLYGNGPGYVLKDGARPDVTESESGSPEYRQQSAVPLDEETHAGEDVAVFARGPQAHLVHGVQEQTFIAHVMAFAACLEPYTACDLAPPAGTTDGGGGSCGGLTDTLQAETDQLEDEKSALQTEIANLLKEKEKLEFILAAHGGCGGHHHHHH
Experimental: as §1

human ALPL on CHO cells = target: T3, human ALPL on CHO cells (human, UniProt P05186 18-501); assay: flow cytometry, CHO cells stably expressing human ALPL; His6-tagged VHH detected with anti-His tag Ab and FITC anti-mouse Ab
T3 construct: whole, on cells; also called CHO-ALPL
T3 sequence (looked up): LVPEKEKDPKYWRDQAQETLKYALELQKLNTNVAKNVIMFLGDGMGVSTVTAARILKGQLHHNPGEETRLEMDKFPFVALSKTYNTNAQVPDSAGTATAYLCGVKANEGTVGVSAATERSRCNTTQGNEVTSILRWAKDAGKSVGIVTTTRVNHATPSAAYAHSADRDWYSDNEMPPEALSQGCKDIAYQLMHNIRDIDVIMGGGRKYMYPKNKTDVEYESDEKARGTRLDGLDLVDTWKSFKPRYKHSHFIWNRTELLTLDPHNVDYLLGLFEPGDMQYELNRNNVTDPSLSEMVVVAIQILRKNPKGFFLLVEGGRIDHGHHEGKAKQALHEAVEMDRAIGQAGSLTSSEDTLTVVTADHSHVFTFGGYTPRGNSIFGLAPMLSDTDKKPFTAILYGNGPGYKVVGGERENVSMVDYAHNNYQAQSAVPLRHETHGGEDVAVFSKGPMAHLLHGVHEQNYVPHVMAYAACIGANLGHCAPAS
Experimental: C-terminal His tagged VHH proteins were assessed for ALPP, ALPPL2, ALPI and ALPL cell-surface binding by flow cytometry. Binders encompassing different epitope bins were screened on CHO cells stably expressing ALPP, ALPPL2, ALPI or ALPL. High levels of cell-surface proteins expression were confirmed for each of the cell-lines by flow cytometry.
Cell surface binding of test agents to hALPP isoforms was characterized in four CHO-ALPP isoform stably transfected cell lines (CHO-ALPP, CHO-ALPPL2, CHO-ALPI and CHO-ALPL) and the resulting KDapp values determined. Adherent cells were detached from tissue culture flasks by incubating with 0.1% EDTA/PBS solution at 37° C. for ~10 minutes or until cells detached easily. Cells were re-suspended in ice-cold PBS/2% FCS in 15 ml tubes and centrifuged at 1700 rpm for 5 mins at 4° C. Supernatant was removed and the cell pellet re-suspended in PBS/2% FCS. […] Cells were incubated with 100 μl of test agents at a range of concentrations, plus controls for 1 hr on ice. The sample plate was centrifuged at 1700 rpm for 5 mins at 4° C. The supernatant was removed, and a wash performed by re-suspending the cell pellets in 0.25 mL of ice-cold PBS/2% FCS using a multichannel pipette. Samples were again centrifuged at 1700 rpm for 5 min at 4° C. Supernatant was removed and two further washes performed as described. After the final wash and centrifugation step, excess liquid was removed by blotting the plate on tissue paper. Binding of VHH (His6 tagged) agents was determined by adding 100 μl of anti-x6His tag Ab (Abcam) per cell pellet sample as appropriate and incubating on ice for 30 mins. Wash steps were performed as described previously. Fitc-anti-mouse antibody (ThermoFisher) was used to detect binding of the VHH (His6 tagged) agents by incubating with the appropriate samples for 30 min on ice in the dark. Wash steps were performed as described previously. All cell pellets were finally re-suspended in […] of ice-cold PBS/2% FCS and left on ice in the dark prior to analysis on a Merck-Millipore Guava EasyCyte HT or Thermo Fisher Attune N×T flow cytometer.

B1: A05 His (VHH, not shown: small tags and cut ends)
VHH: QVQLVESGGGLVQAGASLTLSCAASGFTFNTRSIVWFRQAPGKEREAVSCISKVAGSTYYGDSVQGRFSSSTDNAKNTVSLQMNSLKPEDTAVYTCAASFAPNCYGWSVAANMEYWGEGTMVTVSS
notes: also called #249
[1]
  binding result: no binding
[2]
  Kd: < 0.01 nM
  koff: < 1e-07 s⁻¹
  kon: 260000 M⁻¹ s⁻¹
Human ALPL on CHO cells
  binding result: no binding (tested: 350 nM)

B2: A06 His (VHH, not shown: small tags and cut ends)
VHH: QVHLVESGGGLVQAGGSLRLSCAASGRTFLSMGWFRQAPGKEREFVAAISWTGGSTGYADSVKGRFTISRESDKETMYLQMNSLKPEDTAVYYCAARGDVYYGGDDATRYKYWGQGTQVTVSS
notes: also called #250
[1]
  binding result: no binding
[2]
  Kd: 1.32 nM
  koff: 0.000154 s⁻¹
  kon: 117000 M⁻¹ s⁻¹
Human ALPL on CHO cells
  binding result: no binding (tested: 350 nM)

B3: D04 His (VHH, not shown: small tags and cut ends)
VHH: QVQLVESGGGLVQPGGSLRLSCAASESTFSINVMGWYRQAPGKQRELVATITSGDITNYADSVKGRFTISRDNAENTVYLRTNSLKPEDTAVYYCNARGEYHSGNEYDYWGQGTQVTVSS
[1]
  binding result: no binding
[2]
  Kd: < 0.01 nM
  koff: < 1e-07 s⁻¹
  kon: 85100 M⁻¹ s⁻¹
Human ALPL on CHO cells
  binding result: no binding (tested: 350 nM)

B4: F08 His (VHH, not shown: small tags and cut ends)
VHH: QVQLVESGGGSVQAGGSLRLSCAASGPSLSNYAMGWFRQAPGKEREFVAGISWGGGRTSYTDSVKGRFTISRDNAKNTVYLQMNNLKPEDTGVYYCAGRYGRGRNVEYEYDYWGQGTQVTVSS
notes: also called #269
[1]
  binding result: no binding
[2]
  Kd: < 0.01 nM
  koff: < 1e-07 s⁻¹
  kon: 252000 M⁻¹ s⁻¹
Human ALPL on CHO cells
  binding result: no binding (tested: 350 nM)

B5: E10 His (VHH, not shown: small tags and cut ends)
VHH: QVQLVESGGGLVQAGGSLRLSCAVSGRALSDYNIGWFRQAPGKEREFVARKTWDGSSTRYDDSVKGRFTVSIEDAKNTAYLQMSSLKTEDTAVYYCAAGRYSRARGWEYDYWGQGTQVTVSS
notes: also called #265
[1]
  binding result: no binding
[2]
  Kd: < 0.01 nM
  koff: < 1e-07 s⁻¹
  kon: 54200 M⁻¹ s⁻¹
Human ALPL on CHO cells
  binding result: no binding (tested: 350 nM)

B6: F05 His (VHH, not shown: small tags and cut ends)
VHH: B5 VHH with V24A, L29F, S30G, K51R, E73D, D74N, S84N, A104V
[1]
  binding result: no binding
[2]
  Kd: < 0.01 nM
  koff: < 1e-07 s⁻¹
  kon: 13900 M⁻¹ s⁻¹
Human ALPL on CHO cells
  binding result: no binding (tested: 350 nM)

B7: C07 His (VHH, not shown: small tags and cut ends)
VHH: QVQLVESGGGLVQAGESLRLACAASGTIFSGNAVGWYRQAPEKQREWVSSITDYGDTDYAEAVKGRFTISRDNAKNTVYLQMNSLKPEDTAVYYCYVYQRGESEEYWGQGTQVTVSS
notes: also called #258
[1]
  binding result: no binding
[2]
  Kd: 0.22 nM
  koff: 2.8e-05 s⁻¹
  kon: 129000 M⁻¹ s⁻¹
Human ALPL on CHO cells
  binding result: no binding (tested: 350 nM)

B8: E06 His (VHH, not shown: small tags and cut ends)
VHH: QVHLVESGGGLVQAGGSLRLSCAASRRSFSEYAMGWFRQAPGKEREFVAAIGWSGVIEYADSVKGRFTISRDNAKDTVYLQMNSLKPEDTAVYYCAAGLGIRVVSQTPAYWGQGTQVTVSS
[1]
  binding result: no binding
[2]
  Kd: < 0.01 nM
  koff: < 1e-07 s⁻¹
  kon: 106000 M⁻¹ s⁻¹
Human ALPL on CHO cells
  binding result: no binding (tested: 350 nM)

B9: D10 His (VHH, not shown: small tags and cut ends)
VHH: QVQLVESGGGLVQPGGSLRLSCAASGSIFSVNTMGWYRQAPGKQRDLVAVATSGGTIHYADSVKGRFTISRDNAKNTVYLQMNSLKPEDTAVYYCNLVVPYGMIAGDHDYWGQGTKVTVSS
[1]
  binding result: no binding
[2]
  Kd: 0.2 nM
  koff: 1.3e-05 s⁻¹
  kon: 67300 M⁻¹ s⁻¹
Human ALPL on CHO cells
  binding result: no binding (tested: 350 nM)
